Bridges are numbered along the chain shown (N, C = ends). Where no end group is shown, it is not given here.
Key:
[1] = Testing of fibril formation by electron microscopy (EM); type: physicochemical; settings: 450 μM solution in 10 mM phosphate buffer, 150 mM NaCl, 30% acetonitrile, pH 5.5; for fibril formation (EM): after three days incubation
Experimental: (§1) The physicochemical properties of cβ-AP were investigated by FT-IR (Fourier-transform infrared spectrometry) and CD (circular dichroism spectropolarimetry). EM (electron microscopy) and AFM (atomic force microscopy) were used to test the properties of fibrils of cβ-AP128. In the EM studies, 450 μM solutions of cβ-AP128 or β-AP (1-28) (SEQ ID NO: 2) or [Lys^17, Asp^21] β-AP(1-28) (SEQ ID NO: 5) in 10 mM phosphate buffer, 150 mM NaCl and 30% acetonitrile, pH 5.5 were initially incubated for several days and tested for fibril formation.

[2] = FT-IR of aged peptide solutions/suspensions (β-pleated sheet conformation); type: physicochemical; settings: 450 μM solutions/suspensions, 10 mM phosphate buffer, 150 mM NaCl, 30% acetonitrile, pH 5.5
Experimental: as §1

[3] = CD of peptide alone (β-pleated sheet formation and precipitation); type: physicochemical; settings: 10 mM phosphate buffer, 150 mM NaCl, 30% acetonitrile, pH 5.5
Experimental: (§2) The effect of cβ-AP128 (SEQ ID NO: 20) on the aggregation and fibril formation of β-AP (1-28) was tested by CD and EM. A solution of 450 μM β-AP (1-28) (SEQ ID NO: […]) and cβ-AP128 (SEQ ID NO: […]) in 10 mM phosphate buffer, 150 mM NaCl and 30% acetonitrile, pH 5.5, was incubated for several days and tested for fibril formation by EM (FIGS. 2A and 2B).

β-AP (1-28) = target: T1, β-AP (1-28) (Homo sapiens, UniProt P05067); assay: Inhibition of the aggregation and fibril formation of β-AP (1-28) by cβ-AP128, tested by CD and EM; type: biochemical; settings: 450 μM β-AP (1-28) and cβ-AP128, 10 mM phosphate buffer, 150 mM NaCl, 30% acetonitrile, pH 5.5
T1 construct: made in house; host or cells: chemical solid-phase peptide synthesis (Boc/Bzl on PAM resin), no expression host
T1 sequence (P05067 672-699 limits assumed): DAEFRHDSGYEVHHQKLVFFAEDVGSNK
Experimental: as §2

time without changes of the CD spectra of the mixture with β-AP (1-28) (β-AP (1-28))	Substance	fibril formation (EM) [1]	conformation by FT-IR after aging [2]	fate after β-pleated sheet formation [3]	incubation time over which no fibrils were formed (EM) [1]
–	[Lys^17, Asp^21] β-AP (1-28)	completely fibrillated	β-pleated sheet conformation	precipitated out as insoluble amyloid	–
more than 1 month	cyclo^17,21 [Lys^17, Asp^21] β-AP (1 to 28) (DAEFRHDSGYEVHHQKKVFFDEDVGSNK; lactam 17-21; listed as Homo sapiens) [cβ-AP128, β-AP (1-28) derivative with lactam bridge between side chains of Lys17 and Asp21]	–	prevents the β-pleated sheet conformation	–	more than 30 days
–	β-AP (1-28)	completely fibrillated	β-pleated sheet conformation	precipitated out as insoluble amyloid	–

— patent publication US7342091B2, “Soluble cyclic analogues of β amyloid peptide” (Fraunhofer-Gesellschaf zur Forderung der angewandten …, priority 2001, dated 2008)
